The target in this experiment is Cas7 of the PseCAST TniQ-Cascade (QCascade) complex (Pseudoalteromonas (Tn7016 transposon)). Nature of the experiment: cryo-EM structure.

As a reminder, the stoichiometry N is the number of molecules, sites or subunits per partner or assembly. Turning to “Cas7 of the PseCAST TniQ-Cascade (QCascade) complex (natural protein)”, the stoichiometry N was determined as 6.

For the origin of these results see paper PMC12375015.
